In the supplement of paper PMC6757056:
± gives the standard deviation of the averaged measurements.

B1: library; a variant is named by its letters at N, in order (parent)
chain: GCUGUCACCGGUGUAUUACCCUAGUGGUCGACCGGUCUGAUGAGUCUNNNNNNAGACGAAACAGC

Experiments:
hypoxanthine [1] = variants of: B1; test: normalized RNA/DNA level with ligand (relative to sTRSVctl = 100) (log10 (% of sTRSVctl)); ligand: hypoxanthine (xanthine aptamer); higher = less ribozyme self-cleavage, higher mRNA level; settings: ligand concentration (+) RNA-Seq: 5 mM, HEK293T, reporter: mCherry (pCS4076), ligand present: yes
In short: (§1)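 Ribozyme switch library plasmids with mCherry reporters (eGFP in certain ligand experiments) went into HEK293T cells at 4 µg per 6-well well. Where ligand was used, it was applied 1 h before transfection, and total RNA was extracted with EDTA 72 h later for reverse transcription, amplification, barcoding and sequencing. RNA level is the RNA-to-DNA read ratio normalized to a spiked-in non-cleaving sequence or to the leading sequences, then scaled and log-transformed. Scaling was ×100 with log10, the leading set comprised 25 sequences, and the cutoff was ≥100 DNA reads.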

hypoxanthine [2] = variants of: B1; test: normalized RNA/DNA level without ligand (relative to sTRSVctl = 100) (log10 (% of sTRSVctl)); ligand: hypoxanthine (xanthine aptamer); higher = less ribozyme self-cleavage, higher mRNA level; settings: HEK293T, reporter: mCherry (pCS4076), ligand present: no
In short: as §1

Row | Variant | normalized RNA/DNA level with ligand (log10) (hypoxanthine [1]) | normalized RNA/DNA level without ligand (log10) (hypoxanthine [2])
1 | CGAAUC | 1.98 ± 0.028 | 1.96 ± 0.042
2 | CGAAUU | 1.95 ± 0.046 | 1.807 ± 0.00086
3 | GCUGUU | 1.99 ± 0.05 | 1.98 ± 0.058
4 | GCUGUA | 1.9622 ± 0.0015 | 1.901 ± 0.014
5 | GCUGUC | 1.913 ± 0.0099 | 1.84 ± 0.013
6 | UCUUAC | 1.94 ± 0.058 | 1.83 ± 0.044
7 | UCUUAG | 1.93 ± 0.042 | 1.66 ± 0.017
8 | UCUUAA | 1.87 ± 0.047 | 1.83 ± 0.041
9 | UCUUAU | 1.9468 ± 0.0014 | 1.84 ± 0.092
10 | CGAGUA | 1.928 ± 0.013 | 1.72 ± 0.042
11 | CGAGUG | 1.92 ± 0.0018 | 1.76 ± 0.04
12 | ACUGCC | 1.9853 ± 0.0019 | 1.89 ± 0.065
13 | ACUGCU | 1.91 ± 0.033 | 1.86 ± 0.037
14 | GCUUUU | 1.96 ± 0.011 | 1.831 ± 0.01
15 | AGAACA | 1.91 ± 0.044 | 1.799 ± 0.0065
16 | AGAACU | 1.96 ± 0.035 | 1.83 ± 0.022
17 | UGAAGG | 1.83 ± 0.055 | 1.48 ± 0.062
18 | UGAAGC | 1.925 ± 0.0097 | 1.807 ± 0.01
19 | CGAAGU | 1.93 ± 0.022 | 1.86 ± 0.046
20 | CGAAGC | 1.948 ± 0.0063 | 1.811 ± 0.012

Row | Variant | normalized RNA/DNA level with ligand (log10) (hypoxanthine [1]) | normalized RNA/DNA level without ligand (log10) (hypoxanthine [2])
21 | UGAGGG | 1.87 ± 0.036 | 1.514 ± 0.0058
22 | UGAGGC | 1.94 ± 0.03 | 1.9 ± 0.079
23 | UGAGGU | 1.94 ± 0.035 | 1.665 ± 0.015
24 | GCUUAC | 1.918 ± 0.0079 | 1.7 ± 0.11
25 | GCUUAU | 1.98 ± 0.053 | 1.81 ± 0.019
26 | GGAAGU | 1.91 ± 0.047 | 1.7 ± 0.02
27 | AGAGAC | 1.88 ± 0.028 | 1.772 ± 0.017
28 | ACUCUC | 2.06 ± 0.025 | 2.014 ± 0.005
29 | UGAAAA | 1.921 ± 0.0047 | 1.836 ± 0.015
30 | UGAAAG | 1.862 ± 0.017 | 1.72 ± 0.039
31 | UGAAAU | 1.907 ± 0.005 | 1.76 ± 0.005
32 | AGAAAG | 1.82 ± 0.039 | 1.41 ± 0.029
33 | AGAAUC | 1.94 ± 0.086 | 1.91 ± 0.048
34 | AGAAUA | 1.92 ± 0.012 | 1.77 ± 0.03
35 | AGAAUU | 1.926 ± 0.017 | 1.86 ± 0.025
36 | CGACAA | 1.89 ± 0.061 | 1.64 ± 0.012
37 | CGACAU | 1.887 ± 0.012 | 1.74 ± 0.021
38 | CGACAG | 1.93 ± 0.037 | 1.68 ± 0.053
39 | CCUGUC | 1.989 ± 0.006 | 1.987 ± 0.018
40 | CCUGUU | 2.04 ± 0.05 | 1.9 ± 0.14

Row | Variant | normalized RNA/DNA level with ligand (log10) (hypoxanthine [1]) | normalized RNA/DNA level without ligand (log10) (hypoxanthine [2])
41 | CCUUCU | 1.98 ± 0.08 | 1.95 ± 0.048
42 | CCUUCA | 1.97 ± 0.074 | 1.91 ± 0.04
43 | CCUUCG | 1.88 ± 0.035 | 1.876 ± 0.0072
44 | CCUUCC | 1.99 ± 0.033 | 1.963 ± 0.016
45 | UCUCAC | 2 ± 0.055 | 1.77 ± 0.047
46 | UCUCAU | 1.975 ± 0.012 | 1.887 ± 0.01
47 | UGACAU | 1.937 ± 0.0061 | 1.81 ± 0.033
48 | UGACAA | 1.918 ± 0.012 | 1.74 ± 0.078
49 | GGAGCC | 1.92 ± 0.062 | 1.854 ± 0.0083
50 | CGAGAU | 1.94 ± 0.036 | 1.71 ± 0.018
51 | CGAGAC | 1.93 ± 0.036 | 1.72 ± 0.025
52 | UGAGAC | 1.89 ± 0.024 | 1.83 ± 0.057
53 | CGAACA | 1.94 ± 0.011 | 1.76 ± 0.015
54 | CGAACU | 1.93 ± 0.056 | 1.79 ± 0.018
55 | CGAACG | 1.96 ± 0.038 | 1.8 ± 0.035
56 | CCUGCC | 2.04 ± 0.026 | 2.01 ± 0.023
57 | CCUGCU | 2.02 ± 0.049 | 1.98 ± 0.08
58 | CCUGCA | 2.011 ± 0.0089 | 1.9 ± 0.041
